# Measurements from the supplement of paper PMC10567573.
# B1: TRIM14 (parent)
# chain: YARTPTLDPDTMHARLRLSADRLT
# Variants of: B1
# Assay: protein stability index of a GFP-peptide fusion (GPS, HEK-293T) (PSI 1-6); higher = more stable
# Details: c terminus: a fixed tail appended
# 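Further: lentivirally expressed fusions sorted by FACS into six bins by GFP to DsRed ratio, PSI derived from sequencing read proportions per bin multiplied by bin number.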
row,Variant,protein stability index
1,M12E,3.6
2,M12H,3.13
3,M12I,2.62
4,M12P,3.2
5,M12A,2.56
6,M12F,2.01
7,M12K,2.72
8,M12C,2.34
9,M12Y,2.01
10,M12D,3.94
11,M12Q,2.68
12,M12S,3.21
13,M12L,2.43
14,M12T,2.74
15,M12G,2.89
16,M12V,2.06
17,M12R,3.07
18,M12N,3.63
19,D10H,2.29
20,D10Y,2.34
21,D10N,3.23
22,D10F,1.64
23,D10M,2.4
24,D10P,2.31

row,Variant,protein stability index
1,D10T,2.66
2,D10V,2.78
3,D10C,2.22
4,D10S,3.77
5,D10Q,2.56
6,D10E,2.66
7,D10G,2.48
8,D10K,3.05
9,D10L,2.05
10,D10A,1.98
11,D10I,2
12,D10W,3.31
13,L18Y,2.93
14,L18Q,2.65
15,L18P,3.34
16,L18W,2.18
17,L18S,2.87
18,L18E,3.06
19,L18F,2.04
20,L18K,2.51
21,L18V,2.62
22,L18D,3.38
23,L18M,2.65
24,L18H,2.82

row,Variant,protein stability index
1,L18T,2.42
2,L18C,2.62
3,L18G,2.06
4,L18A,3.6
5,L18N,3.3
6,L18I,2.78
7,L18R,2.81
8,A14F,1.96
9,A14T,2.61
10,A14Y,1.98
11,A14G,3.26
12,A14N,3.08
13,A14R,2.13
14,A14W,2.7
15,A14I,2.13
16,A14D,3.25
17,A14C,2.62
18,A14H,2.04
19,A14V,2.53
20,A14M,2.36
21,A14P,2.45
22,A14Q,2.59
23,A14L,2.81
24,A14E,2.67

row,Variant,protein stability index
1,A14K,1.83
2,A14S,3.02
3,R15H,2.73
4,R15S,3.53
5,R15C,1.85
6,R15M,2.73
7,R15P,2.83
8,R15E,3.25
9,R15W,1.95
10,R15G,3.36
11,R15V,2.04
12,R15K,2.45
13,R15I,2.87
14,R15A,2.81
15,R15L,2.29
16,R15Q,2.43
17,R15N,2.61
18,R15D,2.8
19,R15F,1.93
20,R15T,3.03
21,R15Y,2.26
22,L23Y,2.44
23,L23F,2.13
24,L23G,2.58

row,Variant,protein stability index
1,L23N,2.87
2,L23E,4.03
3,L23K,3.43
4,L23T,2.55
5,L23A,2.96
6,L23H,3.21
7,L23C,2.51
8,L23R,3.21
9,L23Q,3.12
10,L23D,3.38
11,L23M,3.06
12,L23P,2.67
13,L23I,2.62
14,L23S,2.73
15,L23W,2.03
16,L7C,2.1
17,L7I,1.94
18,L7K,2.56
19,L7D,3.54
20,L7Q,2.81
21,L7T,2.46
22,L7F,2.54
23,L7E,3.65
24,L7V,3.33

row,Variant,protein stability index
1,L7G,2.44
2,L7H,2.65
3,L7M,2.81
4,L7R,2.76
5,L7W,2.31
6,L7Y,2.63
7,L7N,2.54
8,L7S,2.98
9,L7A,2.75
10,R22H,2.97
11,R22C,2.76
12,R22M,2.16
13,R22I,2.74
14,R22T,2.62
15,R22G,2.76
16,R22V,2.26
17,R22F,2.52
18,R22Y,2.62
19,R22S,2.81
20,R22K,2.33
21,R22D,3.09
22,R22A,2.57
23,R22Q,2.59
24,R22N,2.77

row,Variant,protein stability index
1,R22E,3.31
2,R22L,2.68
3,R22P,2.31
4,R22W,2.01
5,S19P,3.06
6,S19T,2.77
7,S19N,3.01
8,S19I,2.79
9,S19C,2.42
10,S19A,2.5
11,S19G,2.21
12,S19Q,2.72
13,S19V,3.62
14,S19W,1.77
15,S19M,2.06
16,S19F,1.99
17,S19E,2.93
18,S19D,2.59
19,S19K,2.29
20,S19L,2.33
21,S19Y,1.89
22,S19H,2.26
23,S19R,2.88
